Substrate: Nc1nc2c(ncn2[C@@H]2O[C@H](COP(=O)(O)OP(=O)(O)OP(=O)(O)O)[C@@H](O)[C@H]2O)c(=O)[nH]1
Assay: radioactive GTPase assay, thin-layer chromatography, Lineweaver-Burk
Format: biochemical, Saccharomyces cerevisiae
Conditions: pH 7.4, 37 °C, 5 mM MgCl2, 5 mM KCl, 25 mM HEPES, 100 mM sucrose, 60 min, labelled compound [α-32P]GTP 0.1-1.2 μM, no GAP, GEF or Gtr2

B1: Gtr1 (Saccharomyces cerevisiae S288C) (protein)
chain: MSSNNRKKLLLMGRSGSGKSSMRSIIFSNYSAFDTRRLGATIDVEHSHLRFLGNMTLNLWDCGGQDVFMENYFTKQKDHIFQMVQVLIHVFDVESTEVLKDIEIFAKALKQLRKYSPDAKIFVLLHKMDLVQLDKREELFQIMMKNLSETSSEFGFPNLIGFPTSIWDESLYKAWSQIVCSLIPNMSNHQSNLKKFKEIMNALEIILFERTTFLVICSSNGENSNENHDSSDNNNVLLDPKRFEKISNIMKNFKQSCTKLKSGFKTLILNNNIYVSELSSNMVCFIVLKDMNIPQELVLENIKKAKEFFQ
notes: full-length, N-terminal His6 tag (pET28a+ named in acknowledgements), expressed in E. coli, Ni-NTA purified, 36 kDa, monomer (without Gtr2); printed PDB id is of the Gtr1-Gtr2 complex of others
Q: How did the Km turn out when B1 was run?
A: 1.0 µM

Q: And the kcat?
A: 6.7e-05 s⁻¹

Source: article PMC3477016, “The intrinsic GTPase activity of the Gtr1 protein from Saccharomyces cerevisiae” (BMC Biochemistry, 2012)
